Reference: patent US20250163119A1, “COMPOUNDS FOR THE TREATMENT OF DIABETES OR OBESITY” (Eli Lilly and Company, priority 2023, published 2025)
*1 amine or outer side, *2 acyl side, *3 side chain or, on linkers, in order; H or OH if unused. Where no end group is shown, it is not given here. Side-chain parts run from the residue outwards. [ ]: non-standard residue; d: D form. The star is where a group is joined. C20 diacid = O=C(O)CCCCCCCCCCCCCCCCCCC(=O)*; γGlu = O=C(O)[C@H](CCC(=O)[*:2])N[*:1]; εLys = N[C@@H](CCCCN[*:1])C(=O)[*:2]; NMeI = CC[C@H](C)[C@H](NC)C(=O)O; αMeL = CC(C)C[C@](C)(N)C(=O)O; AEEA = NCCOCCOCC(=O)O; Aib = CC(C)(N)C(=O)O

T1: human corticotropin-releasing hormone receptor 1 (CRHR1) (human, UniProt P34998 24-415)
T1 sequence (looked up): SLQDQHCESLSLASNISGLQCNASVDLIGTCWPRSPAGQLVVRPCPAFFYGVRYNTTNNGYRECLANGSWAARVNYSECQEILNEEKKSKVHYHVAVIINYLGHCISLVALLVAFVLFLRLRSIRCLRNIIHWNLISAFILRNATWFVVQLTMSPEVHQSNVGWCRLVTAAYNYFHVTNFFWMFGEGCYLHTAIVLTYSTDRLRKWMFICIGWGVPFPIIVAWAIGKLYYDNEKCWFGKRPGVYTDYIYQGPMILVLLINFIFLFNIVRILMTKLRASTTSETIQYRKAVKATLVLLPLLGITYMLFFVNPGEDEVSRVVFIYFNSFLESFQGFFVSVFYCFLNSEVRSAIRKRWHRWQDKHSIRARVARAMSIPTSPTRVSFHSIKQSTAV


How the values were obtained:
Experiment in all cases: cell-based or functional assay
[1] = molecular target: T1, human corticotropin-releasing hormone …
[2] = molecular target: T1, human corticotropin-releasing hormone …; remark: listed apart in the source
[3] = molecular target: rat CRHR2 (endogenous on A7r5 cells) (rat, UniProt P47866 20-411)
rat CRHR2 (endogenous on A7r5 cells), sequence (P47866 20-411): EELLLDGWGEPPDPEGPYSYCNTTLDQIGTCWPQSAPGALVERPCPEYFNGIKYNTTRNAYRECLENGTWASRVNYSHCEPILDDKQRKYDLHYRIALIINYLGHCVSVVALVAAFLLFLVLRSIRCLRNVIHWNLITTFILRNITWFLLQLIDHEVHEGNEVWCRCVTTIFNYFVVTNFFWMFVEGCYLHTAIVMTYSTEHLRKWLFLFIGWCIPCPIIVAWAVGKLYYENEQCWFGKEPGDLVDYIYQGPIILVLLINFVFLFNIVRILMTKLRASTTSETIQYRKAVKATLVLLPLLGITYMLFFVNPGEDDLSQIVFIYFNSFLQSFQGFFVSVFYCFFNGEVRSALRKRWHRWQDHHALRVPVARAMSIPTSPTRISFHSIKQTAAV

Row | hCRHR1 cAMP EC50 [1] | Y79 cAMP EC50 [2] | A7r5 cAMP EC50 [3] | Binder
1 | > 10000 nM | 4000 nM | 0.313 nM | Ac-PPPIVTS[αMeL]D[dV]PT[Aib][αMeL]LQK[Aib]LEQERAEKARQQAK([γGlu-AEEA-εLys-C20 diacid])ENTEILAQV-NH2 [polypeptide comprising SEQ ID NO:46]
2 | 2300 nM | 720 nM | 1.06 nM | Ac-PPPIVTS[αMeL]D[dV]PT[Aib][αMeL]LQKLLEQERAEKARQQAK([γGlu-AEEA-εLys-C20 diacid])EAAEILAQV-NH2 [polypeptide comprising SEQ ID NO:47]
3 | > 10000 nM | > 10000 nM | 0.137 nM | [NMeI]VTSLDVPIG[αMeL]LQKLIEQEKQEKEKQQAKENTEILAQV-NH2 (not fully specified (residue 29)) [polypeptide comprising SEQ ID NO:49]
4 | > 10000 nM | 4500 nM | 1.16 nM | Ac-PPPIVTS[αMeL]DVPT[Aib][αMeL]LQKLLEQERAEKARQQAK([γGlu-AEEA-εLys-C20 diacid])EAAEILAQV-NH2 [polypeptide comprising SEQ ID NO:48]
